Results published in US20100104555A1.

What was measured:
Assay in all cases: cell-based or functional assay
[1] = target: E1E2 Env of HCV isolate UKN2B1.1 (genotype 2b) on HCVpp (hepatitis C virus genotype 2b, isolate UKN2B1.1)
[2] = target: E1E2 Env of HCV isolate UKN1B12.16 (genotype 1b) on HCVpp (hepatitis C virus genotype 1b, isolate UKN1B12.16)
[3] = target: E1E2 Env of HCV isolate UKN2A1.2 (genotype 2a) on HCVpp (hepatitis C virus genotype 2a, isolate UKN2A1.2)
[4] = target: E1E2 Env of HCV isolate OH8 (genotype 1b) on HCVpp (hepatitis C virus genotype 1b, isolate OH8)
[5] = target: VSV (control pseudotype virus)
[6] = target: E1E2 Env of HCV isolate J6 (genotype 2a) on HCVpp (hepatitis C virus genotype 2a, isolate J6) (UniProt P26660)
[7] = target: E1E2 Env of HCV isolate UKN5.15.7 (genotype 5) on HCVpp (hepatitis C virus genotype 5, isolate UKN5.15.7)
[8] = target: E1E2 Env of HCV isolate UKN4.21.16 (genotype 4) on HCVpp (hepatitis C virus genotype 4, isolate UKN4.21.16)
[9] = target: E1E2 Env of HCV isolate H (genotype 1a) on HCVpp (hepatitis C virus genotype 1a, isolate H)

Sequence of MAb AR2A (antibody) (VH): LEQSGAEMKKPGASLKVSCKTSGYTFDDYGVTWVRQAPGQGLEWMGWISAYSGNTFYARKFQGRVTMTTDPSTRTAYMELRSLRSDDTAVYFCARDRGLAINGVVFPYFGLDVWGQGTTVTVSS
Sequence of MAb AR2A (antibody) (VL): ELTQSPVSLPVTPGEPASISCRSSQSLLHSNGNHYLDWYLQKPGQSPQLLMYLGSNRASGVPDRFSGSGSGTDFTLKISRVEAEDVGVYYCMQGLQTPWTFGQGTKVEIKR
Sequence of E1E2 Env of HCV isolate J6 (genotype 2a) on HCVpp (hepatitis C virus genotype 2a, isolate J6) (P26660 192-750 limits assumed): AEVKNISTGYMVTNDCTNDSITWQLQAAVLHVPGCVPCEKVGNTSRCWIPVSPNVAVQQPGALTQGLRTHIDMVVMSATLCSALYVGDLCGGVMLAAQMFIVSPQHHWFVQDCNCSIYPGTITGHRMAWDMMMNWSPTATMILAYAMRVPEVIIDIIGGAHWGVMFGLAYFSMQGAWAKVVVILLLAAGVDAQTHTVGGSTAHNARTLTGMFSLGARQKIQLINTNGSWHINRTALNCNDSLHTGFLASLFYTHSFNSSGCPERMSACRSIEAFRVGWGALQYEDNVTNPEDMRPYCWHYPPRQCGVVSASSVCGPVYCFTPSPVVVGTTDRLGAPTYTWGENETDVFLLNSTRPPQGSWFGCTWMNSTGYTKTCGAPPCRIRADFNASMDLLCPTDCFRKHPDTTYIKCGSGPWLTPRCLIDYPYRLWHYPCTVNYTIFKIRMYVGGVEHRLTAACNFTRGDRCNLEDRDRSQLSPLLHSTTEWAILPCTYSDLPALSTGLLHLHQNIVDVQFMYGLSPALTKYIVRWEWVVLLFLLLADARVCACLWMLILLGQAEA
Sequence of MAb AR1B (antibody) (VH): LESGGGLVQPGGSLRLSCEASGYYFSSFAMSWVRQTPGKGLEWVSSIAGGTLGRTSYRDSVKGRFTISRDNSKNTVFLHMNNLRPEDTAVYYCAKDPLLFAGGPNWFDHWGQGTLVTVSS
Sequence of MAb AR1B (antibody) (VL): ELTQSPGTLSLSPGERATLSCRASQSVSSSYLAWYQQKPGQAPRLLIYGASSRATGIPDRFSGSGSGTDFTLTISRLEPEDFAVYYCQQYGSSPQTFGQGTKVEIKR
Sequence of MAb AR3B (antibody) (VH): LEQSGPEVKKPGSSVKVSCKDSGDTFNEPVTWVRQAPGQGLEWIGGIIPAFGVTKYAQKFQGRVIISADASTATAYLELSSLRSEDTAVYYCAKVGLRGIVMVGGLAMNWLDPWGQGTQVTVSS
Sequence of MAb AR3B (antibody) (VL): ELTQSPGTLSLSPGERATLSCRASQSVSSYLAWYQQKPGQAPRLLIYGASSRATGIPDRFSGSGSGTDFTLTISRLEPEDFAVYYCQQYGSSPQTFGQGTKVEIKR
Sequence of MAb AR3C (antibody) (VH): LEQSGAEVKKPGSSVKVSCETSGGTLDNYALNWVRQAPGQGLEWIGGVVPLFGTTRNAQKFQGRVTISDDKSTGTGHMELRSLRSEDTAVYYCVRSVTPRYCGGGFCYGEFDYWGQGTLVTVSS
Sequence of MAb AR3C (antibody) (VL): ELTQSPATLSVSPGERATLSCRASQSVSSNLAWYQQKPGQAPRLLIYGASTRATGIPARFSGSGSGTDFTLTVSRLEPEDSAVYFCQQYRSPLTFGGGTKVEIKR

| Substance | Neutralizing activity (IC50), HCVpp [1] [µg/mL] | Neutralizing activity (IC50), HCVpp [2] [µg/mL] | Neutralizing activity (IC50), HCVpp [3] [µg/mL] | Neutralizing activity (IC50), HCVpp [4] [µg/mL] | Neutralizing activity (IC50), control pseudotype [5] [µg/mL] | Neutralizing activity (IC50), HCVpp [6] [µg/mL] | Neutralizing activity (IC50), HCVpp [7] [µg/mL] | Neutralizing activity (IC50), HCVpp [8] [µg/mL] | Neutralizing activity (IC50), HCVpp [9] [µg/mL] |
| --- | --- | --- | --- | --- | --- | --- | --- | --- | --- |
| MAb AR1A (antibody) | > 50 | > 50 | > 50 | > 50 | > 50 | > 50 | > 50 | > 50 |  |
| MAb AR1B (antibody) | > 50 | > 50 | > 50 | > 50 | > 50 | > 50 | > 50 | > 50 |  |
| MAb AR2A (antibody) | 10 | > 50 | 5 | > 50 | > 50 | > 50 | 10 | 1 | 5 |
| MAb AR3B (antibody) | 10 | 1 | 5 | 5 | > 50 | 10 | 1 | 1 | 1 |
| MAb AR3C (antibody) | 10 | 1 | 10 | 5 | > 50 | 10 | 1 | 1 | 1 |
| MAb AR3D (antibody) | 25 | 1 | 25 | 5 | > 50 | 50 | 10 | 1 | 1 |
